Reference: patent US6261760A, “Regulation of the cell cycle by sterols” (priority 1999, dated 2001)

Test system: LDL FC uptake by fibroblast monolayers
Experiment: Effects of metabolic inhibitors on uptake of 3H-cholesterol from LDL (Example 1)
Conditions: cells pretreated with proteinase K; 4 experiments

B1: proteinase K: proteinase K pretreatment of cells (protein, UniProt P06873 106-384, looked up)
Proteinase K: AAQTNAPWGLARISSTSPGTSTYYYDESAGQGSCVYVIDTGIEASHPEFEGRAQMVKTYYYSSRDGNGHGTHCAGTVGSRTYGVAKKTQLFGVKVLDDNGSGQYSTIIAGMDFVASDKNNRNCPKGVVASLSLGGGYSSSVNSAAARLQSSGVMVAVAAGNNNADARNYSPASEPSVCTVGASDRYDRRSSFSNYGSVLDIFGPGTSILSTWIGGSTRSISGTSMATPHVAGLAAYLMTLGKTTAASACRYIADTANKGDLSNIPFGTVNLLAYNNYQA
inhibition of uptake of 3H-FC LDL label: 7±6%
